According to the DeepSol protein solubility set:

Experiment: soluble on expression in E. coli; label from the status in PepcDB or PDB records

Q: For “MSLTYQFMQPYTFKNGVTLKNRMVMSPTTTMSSFYDGHVTNDEIKFYDVRAGGPGMIIGEVANVIASGKGFEGELSIADDGDIDGLSRLANAMKRGGTKAILQIFHAGRKSNDSILRGEQPVSASAVKAVFPPDSQTPRELTAAEIDEIIVAFGEATRRAIAAGFDGVELHGANTYLLQQFFSPNSNRRTDKWGGDRDARMGFAKAVIASSQQAIDTYADRPFLLGYRISPEEIETPGIRLADSLAFVDMLGDSTVDYVHTSMGSAHRTSLNDKTDHEPILKQLVQQLAGRKPLIGVGSVEKPADAEAVLEMGADLVAMGREFIREPQWVEKIVDGDEASIRYQISPSELDELAIPRAMQDYLKGAFYSVMHFTTDPSVAVDYQNEGHHHHHH”, which “soluble on expression in E. coli” value is on record?
A: The value was “soluble”.

Q: Which “soluble on expression in E. coli” value does the source give for “MSLTDLNRTDLNRTDLNRTDLNRTDLNRTALPSRTDGTVEKTDTLVVGAGQAGVAMSEHLSRLGVPHLVLERNRIAEAWRSGRWDSLVANGPAWHDRFPGMEFDIDPDGFPGKDQVAAYFEAYAKKFDAPIRTGVEVRKVVRNVGRPGFTVETSAGTIEANRVVAATGPFQRPVIPPIAPRDERIRQIHSAHYYNPQQLPEGAVLVVGAGSSGVQIADELQRAGRQVYLSVGAHDRPPRSYRNRDFCWWLGVLGEWDAEVAKPGREHVTIAVSGARGGHTVDFRALAHQGVTLVGLTESFVDGVATFRPDLAENLARGDENYLALLDAADAYIARNGLDLPEEPEARRRLPDPQCVTDPILELDLAEAGVGSIIWATGYAVDFGWLQVDAFDRDGKPRHQRGVSSEPGVYFIGLPWLSRRGSSFIWGVWHDARHVADHIAIQRKYLAYRDAAQRQEQDRASQAPQTSLQEVSEGHHHHHH” here?
A: The value was “soluble”.

Q: For “VDYTLRRRSLLAEVYSGRTGVSEVCDANPYLLRAAKFHGKPSRVICPICRKEQLTLVSWVFGEHLGAVSGSARTAEELILLATRFSEFAVHVVEVCRTCSWNHLVKSYVLGAARPARPPRGSGGTRTARNGARTASE”, which “soluble on expression in E. coli” value is on record?
A: Its value is “not soluble”.

Q: Which “soluble on expression in E. coli” value does the source give for “WDPPYLQIAFDNPNLEFVLSAISEIPKSDHVIIEAGTPLIKRYGTDVISKIRQVRPDAFIVADLKTLDTGNLEARMVADAAGDAIVVSALAPISTIDKLIEEAHKTGIYAVMDTLNQQDPISVLKQLKVMPDVIELHRGIDIEGTEHAWGNIGEIKKIAPKALVAVAGGVRLDKVPVALSQGADILVVGRAITNAKDVREMAEQFINSLNK” here?
A: Its value is “soluble”.

Q: For “MGSDKIHHHHHHMKYLPLGSTGLTVSECGFGCIPIIRLPQDEAVRVLRHAFDRGITFFDTANAYRDSEEKMGIAFAGIRHKLVIATKSLLRSAEGVTGHVENSLRKLGTDYLDLYQLHQIAQEKDWAEVTGPSGALEAAMAAKAAGKVRHVGVTSHNLEMALKLVRTGLFDTIQFPFNLIEEGAKDELLGAARDAGMAFICMKPFGGGVIDNAAVAFTYLRSHDGIFPIPGFESCAQVDEVLSFYERDNVVTEQDLAIMEQYRRELGKRFCRRCEYCQPCPQGVMITPAMGYPIVASRMSPAVAAEFCSKAMETVPLCTECGACIARCPYELPISDILKANYAMYRGHVAGSQGGFAGGKSS”, which “soluble on expression in E. coli” value is on record?
A: Its value is “not soluble”.

Q: For “MAAAGARPVELGFAESAPAWRLRSEQFPSKVGGRPAWLGAAGLPGPQALACELCGRPLSFLLQVYAPLPGRPDAFHRCIFLFCCREQPCCAGLRVFRNQLPRKNDFYSYEPPSENPPPETGESVCLQLKSGAHLCRVCGCLGPKTCSRCHKAYYCSKEHQTLDWRLGHKQACAQPDHLDHIIPDHNFLFPEFEIVIETEDEIMPEVVEKEDYSEIIGSMGEALEEELDSMAKHESREDKIFQKFKTQIALEPEQILRYGRGIAPIWISGENIPQEKDIPDCPCGAKRILEFQVMPQLLNYLKADRLGKSIDWGILAVFTCAESCSLGTGYTEEFVWKQDVTDTP”, which “soluble on expression in E. coli” value is on record?
A: Its value is “soluble”.

Q: For “MALPVTSSANQPTGTNNVAATKCKGCFCPGNPCQLCRLPPHTDDPIPENEPETCRLIREAVPPASFQPGENEYFANLDKATIQCIRSGDVIPNTRRVPGYPGRVYCKPGLPALGAH”, which “soluble on expression in E. coli” value is on record?
A: The value was “not soluble”.

Q: With “MGSDKIHHHHHHMALPKKLKALNLFNNGESYLGQVVEVKLPTLSRKMEEYRGGGMNGPVDIDFGQEKIELEWKCGGMMRSVLNQYGATTHNAVQLRFAGSYQRDDSGAVDAVEFVVRGRHKEIDPGTGKSGDDTEFSVKTSASYYKLMINGSTVIEIDLMNMIEIVNGVDLLAPHRRAIGA” as the sequence, how does the “soluble on expression in E. coli” value read?
A: The value was “not soluble”.

Q: With “MLEIKGLRARIVGTNTEVIRGLNLTVADGEVAAIMGQNGAGKSTLSYLLAGRDDYEVIDGDILYNGQSLLEMDPAERAAYGVFLAFQYPMEIPGVATMEFLKVAMNSQRKARGDQELKIPEFIKCVKEISSKLEINMDMLKRPLNVGFSGGEKKRAEILQMALLEPKLCILDETDSGLDIDALKIVADGVNKLRDPKRSFLVITHYQRLLNYIIPDTVHVLYKGRIIKSGDKSLALYLEQNGYADLIREAA” as the sequence, how does the “soluble on expression in E. coli” value read?
A: The value was “not soluble”.

Q: Which “soluble on expression in E. coli” value does the source give for “MGSDKIHHHHHHMVRDIDKTTSLHLNNEAQFLCFRLDAEKDAQLYGMNIFKIREIIHYDGEVTEILGGSDGVMLGFLSVRGESIPLVDVKRWLHYNANDPSRDLKECSVKDDHNLVIVCHFSNHSIALKVLKIERIIHKNWTEISAGDKQGINEEGKLSAITRFDEERVVQILDVEKMISDVFPSLKDLDDLTLRCIEAIQSQKLILIAEDSLSALKTLEKIVQTLELRYLAFPNGRELLDYLYEKEHYQQVGVVITDLEMPNISGFEVLKTIKADHRTEHLPVIINSSMSSDSNRQLAQSLEADGFVVKSNILEIHEMLKKTLS” here?
A: Its value is “not soluble”.

Q: Which “soluble on expression in E. coli” value does the source give for “MALLVTQPSEGLPPLAATSRSIYEAAYQLSQGTGPFAIDTERAGAYRYDDRAYLLQIRREGSGTVLIDPEANRRLVTSVLGKVINNQPWIIHAAATDLPCLSELGFYPSTIFDTELAGRLAGLPRVNLASMLEERLEVTLKKAHGAEDWSRRPLPHSWLVYAALDVEKLIPLAESMKLLLEAHGKLEWHKQECAHLINTSSHGLDTQRSWQDIKGVSRLTRPRQLVVAEALWELRDDEARMKNTSVSRLLPDKVLISVAQRPPRNSQAALRASEIPKQYRKRIARWMPTINDVLESDPRTWPHTPQFDENQLPSKYVWEKIHPESLDDFEEVKNSIVEKALLLNLPAENLMQPHSVKELCWQLRDVPRPIAQDDVIECLMRLEARPWQIDNSASVITDTLNKIEHAS” here?
A: The value was “not soluble”.

Q: With “MSLIQLRPCPKSYTRDQDKATTPAETVRRVRERLASLDISILAETRRVDVGRLGIPVFLSVCGADARAVMPTRKQMGKGASLEQAQASALMELMERYSFFTFWRDMPGMVEATWSEARNRFGDALIPVDEILHSVHDTLSPDDAVRALDLWRWKFFPATDITHGREVWLPLDWFKKLGEFNGSSAGNTEEESILQGSCELVERHVCCLIDRTQPELPTIDPASLDDPVLLELAAAFERNGIRLVLKDFSMGMPVPTVGAIAWDPATFPERSEIVYTAGTSSSPVKAAIRAVTEVAQLAGDFCTGACYEASGLSKYESLDDIAWLVAGPVVALDTLPSVETDDIRDELAALCDGLAATGHTLYSVSTMNPDVGVNTHYNIVPGFHFRERDRNASLGLFIGRILSEEADAGTALAGLSVLEELYPGAHFLPFFKGMLALRAESHHEAISFFEQAEPLQPEADSRGLAAFYGAYVRTLLTDWQGALPGLDRAVTECPEMKEYFNLRGVCHFKLGDYAQAAQNFAQVLHIDKGAVVDLANLGLCHKFMGDTEKAEELLSAALEIDPGLDFARRHLDEMREGHHHHHH” as the sequence, how does the “soluble on expression in E. coli” value read?
A: The value was “soluble”.

Q: Which “soluble on expression in E. coli” value does the source give for “MNVSVVIPALNEEATVADVVALSRRGSDEVIVIDSDSTDATAARAKAAGASVVNWRDVVSLPPIPGKGEALWRGVAAARGDVVVFLDADLTEISPTIVEDLARPFIDDSVMLAKAAYTRGDASGGGGRVTELTARPLLEAFFPELGFVRQPLGGEYAIRRSAALDLPFVGGYGVEVGLLIDVFRCFGAASIVEVEAGHRGHRHRPLRELAPMARVVASTILQRAGVASGLDGVGQRPAISSLESGVGKVLEHHHHHH” here?
A: The value was “soluble”.

Q: With “GPGSMVAPAQRTSVYVGDLPIDLPRPEEAINNLFSTVAPVVSVKVCRDMATQRSLGYGYVNFQTTADAEKVIDALNYTGIAPGRQIRVMFSIRDPLQRKSGMNNVFVKKLDTAINAKELQAAFSKCGRVLSCKVALDSAGNSKGYGFVQFETADGTKAALEMNGSKLGDSEVVVAPFVRRVDREAMAAKSFRNIYIKNITASATEADVKAIVEEFGKVDSLFLSEHARFPTKFALVAFEEHQAAVQAIAALNESEESGLTEKAVKLVVCRALSKSERDREKKKAASLYQNHGRNLYIKHLPDDITDDRLREIFEPFGKITSCAIMKEPNGTLKGFAFVCFEDKQHASAALRSLNGHPLEHSAKPLYVSHAEQKDMRIRLLQQRRAAMRHQSRMAPLMNTFPQQWPRHPFPHMVPPMMPPPPPPNMGMPQFMSGPMIRRPVMEPHLMQGEPMRPPNRYTQAREQYPPQQRQDGVDMNYLSTLSPEQQKNYLGELLYSRILPLESSNAAKITGMLLEMSREEIFEILADHFALLSKIQEANAVLQQHTGN” as the sequence, how does the “soluble on expression in E. coli” value read?
A: Its value is “soluble”.

Q: For “MGSDKIHHHHHHMEVVGRSRAKAIIETHLNDSLVYFSDHVRILKCNPYCTGVTYLKEHGVYQWIFQVNDPRENPITAVFFVTQNEEHLDSSRTVPAGPVSEEESFPDSAVSGRCIQWVNAPQVPDVPLKEKNTFVGQANTRICLYPLEDRRTEVHFETDITLDFELSFPLNLMPEGILKFMTEAVMSKIMQQATESMLCQVQSDLCCCTTAELDASGGKV”, which “soluble on expression in E. coli” value is on record?
A: The value was “not soluble”.

Q: With “MAQHGALETLKDLAEKEVDDAARLLGEMRRGCQQAEEQLKMLIDYQNEYRSNLNTDMGNGIASNRWINYQQFIQTLEKAIEQHRLQLTQWTQKVDLALKSWREKKQRLQAWQTLQDRQTAAALLAENRMDQKKMDEFAQRAAMRKPE” as the sequence, how does the “soluble on expression in E. coli” value read?
A: The value was “not soluble”.

Q: Which “soluble on expression in E. coli” value does the source give for “MAHHHHHHMPSLFDPLTIGDLTLANRIIMAPLTRARAGDTRTPNALMARYYAERASAGLIISEATSVTPQGVGYASTPGIWSPEQVDGWRLVTDAVHAAGGRIFLQLWHVGRVSDPVFLDGALPVAPSAIAPGGHVSLVRPQRPYVTPRALELDEIPGVVAAFRRGAENARAAGFDGVEVHGANGYLLDQFLQDSANRRTDAYGGSIENRARLLLEVVDAAIDVWSAARVGVHLAPRGDAHTMGDSDPAATFGHVARELGRRRIAFLFARESFGGDAIGQQLKAAFGGPFIVNENFTLDSAQAALDAGQADAVAWGKLFIANPDLPRRFKLNAPLNEPNAATFYAQGEVGYTDYPALESAA” here?
A: Its value is “soluble”.

Q: With “MGSDKIHHHHHHENLYFQGMSRKVILTCAVTGNAPFNPKHPSMPITPAQIADACVEAAKAGASVAHIHVRDPKTGGGSRDPVLFKEVVDRVRSSGTDIVLNLTCGLGAFLLPDPEDESKALPESDVVPVAERVKHLEDCLPEIASLDITTGNQVEGKLEFVYLNTTRTLRAMARRFQELGIKPELEVFSPGDILFGKQLIEEGLIDGVPLFQMVLGVLWGAPASTETMIYQRNLIPANAQWAAFGIGRDQMPMMAQAALLGGNVRVGLEDNLYLSRGVFATNGQLVERARTVIEHLGMSVATPDEARDIMGLSRPA” as the sequence, how does the “soluble on expression in E. coli” value read?
A: Its value is “soluble”.

Q: Which “soluble on expression in E. coli” value does the source give for “MARTREFDTEAAVSRAMELFWTRGYEATSVRDLTGHLGIGQGSLYAAFGDKDGLYRAALEHYRTTLAAAALRSLEEGTDARSAIRTMLVERIRIAVDDNGRGCLAVNAACERLPEDAATRRTVRDMQDAGRDALTEVLRVAAERGEIAKRHDPHTLAAFLVTFLNGLLVSSKITPDVRALEPLVEVALAALD” here?
A: Its value is “not soluble”.

Q: Which “soluble on expression in E. coli” value does the source give for “MFPSPTPPLVSPTAVIEEENDDSVREFSRTLKSRLNCAMVKLSKEHEQVALIPPPPTEKIRKGSYSNKFAAKHRRCHSLDESKKFLSSLEDSSAHAAFLKAISSKHAKSNRVDNVNVSPLRWSSHRRTQSTQENSLQEVVAIDTLLKMSSSD” here?
A: Its value is “not soluble”.

Q: For “MAHHHHHHMTRTKVKKVQMQMKARETVAPPSTACTTTRCLYTLTTFDVKSGGVKTSGEFPAGGGPKLPRDPLLHYFVKSLHGFLSTCLVVTSQRLVTFSANNNFFCIATVFPTLHTSPSVKNSKSLALRGKTENVVTERLGV”, which “soluble on expression in E. coli” value is on record?
A: The value was “not soluble”.

Q: For “KNYDLIFGDSNTKKYYAQFAKEHKTHLYHQILQSNDEQFRFVENDQTVTSQTPFKS”, which “soluble on expression in E. coli” value is on record?
A: Its value is “not soluble”.
